For assay [1], the target named is T1, recombinant TIP1 protein (tax interacting protein 1) (Homo sapiens (Human), UniProt O14907 2-124, limits assumed).
T1 construct: Purified recombinant TIP1 used as coat or analyte in ELISA, Western blot and Biacore
T1 sequence: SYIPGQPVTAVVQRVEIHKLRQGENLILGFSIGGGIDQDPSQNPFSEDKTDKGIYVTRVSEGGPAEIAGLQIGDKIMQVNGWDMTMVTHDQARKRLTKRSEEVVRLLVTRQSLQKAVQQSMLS
The experiment in a line: indirect ELISA, hybridoma supernatant dilutions on coated recombinant TIP1, anti-mouse HRP, TMB. In general terms: ELISA stands for enzyme-linked immunosorbent assay.

For assay [2], the target named is T2, TIP1 in or on human tumor cell lines (A549, H460, H23, U251) (human, UniProt O14907 2-124).
T2 construct: Endogenous TIP1 of tumor cell lines, not transfected cells; also called cell surface TIP1
T2 sequence: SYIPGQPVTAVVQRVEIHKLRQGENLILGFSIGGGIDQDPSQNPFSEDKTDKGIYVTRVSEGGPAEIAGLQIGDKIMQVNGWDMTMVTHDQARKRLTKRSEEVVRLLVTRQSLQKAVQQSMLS
The experiment in a line: flow cytometry, hybridoma supernatant on A549, H460 and H23 cells, Alexa Fluor 488 anti-mouse antibody. (In general: In flow cytometry, cells or beads pass a laser one at a time.)

B1: 4B12 mouse monoclonal anti-TIP1 antibody (antibody, V domains shown)
VH: QFQLQQSGAELARPGASVKLSCKASGYTFTSYGISWVKQRTGQGLEWIGEIYFRSGNIYYNEKFKGKATLTADKSSSTAYMELRSLTSEDSAVYFCARSKTFYSNYGGVFDYWGQGTTLTVSS
VL: DVLVTQTPLSLPVSLGDQASISCRSSRSIVHNNGNTYLEWYLQKPGQSPKLLIYKVSNRFSGVPDRFSGSGSGTDFTLKISRVEAEDLGVYYCFQGSHVPPTFGGGTRLEIK
notes: also called 4612
In the case of B1, in assay [1], the binding result is “binds”.

B2: 2F10 mouse monoclonal anti-TIP1 antibody (antibody, V domains shown)
VH: QVQLQQSGAELARPGASVKLSCKASGYTFTSSGISWVIQKTGQGLEWIGEIYPRSGNTYYNEKFKAKAALTADKSSSTAHMELRSLTSEDSAVYFCARSKTYYSKYGGFFDYWGQGTPLTVSS
VL: DVLMTQTPLSLPVSLGDQASISCRSSQSIVHGNGNTYLEWYLQKPGQSPKLLIHKVSNRFSGVPDRFSGSGSGTDFTLKISRVEAEDLGVYYCFQGSHVPPTFGGGTKLEIK
notes: Mouse monoclonal from hybridoma, tested as supernatant or purified
Consider B2, for which the binding result in assay [2] is listed as “binds”.

B3: 3D6 mouse monoclonal anti-TIP1 antibody (antibody, V domains shown)
VH: QVQLHQSGAELARPGAAVKLTCKASGYTLTNSGISWVKQRSGQGLEWIGEIYPGSGNIYYNEKFKVKATLTADKSSSTTYMELRSLTSEDSAVYFCARSRTYYSKYGGLFDYWGQGATLTVSS
VL: DVLMTQTPLSLPVRLGDQASISCRSSQSLLHNNGNTYLEWYLQKPGQSPKLLIYKVSSRFSGVPDRFSGSGSGTDFTLKISRVEAKDLGVYYCFQGSHIPPTFGGGTKLEIK
notes: Mouse monoclonal from hybridoma
For the molecule B3, the binding result in assay [2] is given as “binds”.

B4: 7H5 mouse monoclonal anti-TIP1 antibody (antibody, V domains shown)
VH: QAQLQQSGAELARPGASVRLSCKASGYILTSSGISWVKQRTGQGLEWIGEIYPRSGNTYYNEKFKGKATLTADKSSSIAYMDLRTLTSEDSAVYFCARSKTFYSKYGGVFDYWGQGTTLTVSS
VL: DVLMTQTPLSLPVSLGDQASISCRSSQNIVHNNGNTYLDWYLQKPGQSPKLLIYKVSNRFSGVPDRFSGSGSGADFTLKISRVEAEDLGVYYCFQGSHVPPTFGGGTKLEIK
notes: as for B3
In the case of B4, the binding result in assay [2] is recorded as “binds”.
